Data: patent publication US20060263802A1 (CRUCELL HOLLAND B V, published 2006)

Experiments:
Assay in all cases: PEPSCAN ELISA, looped peptide, 10 ug/ml
[1] = biological target: looped/cyclic peptide … (rabies virus strain ERA)
[2] = biological target: looped/cyclic peptide … (rabies virus strain ERA); remark: listed apart in the source
[3] = biological target: looped/cyclic peptide … (rabies virus strain ERA); remark: listed apart in the source
[4] = biological target: looped/cyclic peptide … (rabies virus strain ERA); remark: listed apart in the source
[5] = biological target: looped/cyclic peptide … (rabies virus strain ERA); remark: listed apart in the source
[6] = biological target: looped/cyclic peptide … (rabies virus strain ERA); remark: listed apart in the source
[7] = biological target: looped/cyclic peptide … (rabies virus strain ERA); remark: listed apart in the source
[8] = biological target: looped/cyclic peptide … (rabies virus strain ERA); remark: listed apart in the source
[9] = biological target: looped/cyclic peptide … (rabies virus strain ERA); remark: listed apart in the source
[10] = biological target: looped/cyclic peptide … (rabies virus strain ERA); remark: listed apart in the source
[11] = biological target: looped/cyclic peptide … (rabies virus strain ERA); remark: listed apart in the source
[12] = biological target: looped/cyclic peptide … (rabies virus strain ERA); remark: listed apart in the source
[13] = biological target: looped/cyclic peptide … (rabies virus strain ERA); remark: listed apart in the source
[14] = biological target: looped/cyclic peptide … (rabies virus strain ERA); remark: listed apart in the source
[15] = biological target: looped/cyclic peptide … (rabies virus strain ERA); remark: listed apart in the source
[16] = biological target: looped/cyclic peptide … (rabies virus strain ERA); remark: listed apart in the source
[17] = biological target: looped/cyclic peptide … (rabies virus strain ERA); remark: listed apart in the source
[18] = biological target: looped/cyclic peptide … (rabies virus strain ERA); remark: listed apart in the source
[19] = biological target: looped/cyclic peptide … (rabies virus strain ERA); remark: listed apart in the source
[20] = biological target: looped/cyclic peptide … (rabies virus strain ERA); remark: listed apart in the source
[21] = biological target: looped/cyclic peptide … (rabies virus strain ERA); remark: listed apart in the source
[22] = biological target: looped/cyclic peptide … (rabies virus strain ERA); remark: listed apart in the source
[23] = biological target: looped/cyclic peptide … (rabies virus strain ERA); remark: listed apart in the source
[24] = biological target: looped/cyclic peptide … (rabies virus strain ERA); remark: listed apart in the source
[25] = biological target: looped/cyclic peptide … (rabies virus strain ERA); remark: listed apart in the source
[26] = biological target: looped/cyclic peptide … (rabies virus strain ERA); remark: listed apart in the source
[27] = biological target: looped/cyclic peptide … (rabies virus strain ERA); remark: listed apart in the source
[28] = biological target: looped/cyclic peptide … (rabies virus strain ERA); remark: listed apart in the source
[29] = biological target: looped/cyclic peptide … (rabies virus strain ERA); remark: listed apart in the source
[30] = biological target: looped/cyclic peptide … (rabies virus strain ERA); remark: listed apart in the source
[31] = biological target: looped/cyclic peptide … (rabies virus strain ERA); remark: listed apart in the source
[32] = biological target: looped/cyclic peptide … (rabies virus strain ERA); remark: listed apart in the source
[33] = biological target: looped/cyclic peptide … (rabies virus strain ERA); remark: listed apart in the source
[34] = biological target: looped/cyclic peptide … (rabies virus strain ERA); remark: listed apart in the source
[35] = biological target: looped/cyclic peptide … (rabies virus strain ERA); remark: listed apart in the source
[36] = biological target: looped/cyclic peptide … (rabies virus strain ERA); remark: listed apart in the source
[37] = biological target: looped/cyclic peptide … (rabies virus strain ERA); remark: listed apart in the source
[38] = biological target: looped/cyclic peptide … (rabies virus strain ERA); remark: listed apart in the source
[39] = biological target: looped/cyclic peptide … (rabies virus strain ERA); remark: listed apart in the source
[40] = biological target: looped/cyclic peptide … (rabies virus strain ERA); remark: listed apart in the source
[41] = biological target: looped/cyclic peptide … (rabies virus strain ERA); remark: listed apart in the source
[42] = biological target: looped/cyclic peptide … (rabies virus strain ERA); remark: listed apart in the source
[43] = biological target: looped/cyclic peptide … (rabies virus strain ERA); remark: listed apart in the source
[44] = biological target: looped/cyclic peptide … (rabies virus strain ERA); remark: listed apart in the source
[45] = biological target: looped/cyclic peptide … (rabies virus strain ERA); remark: listed apart in the source
[46] = biological target: looped/cyclic peptide … (rabies virus strain ERA); remark: listed apart in the source
[47] = biological target: looped/cyclic peptide … (rabies virus strain ERA); remark: listed apart in the source
[48] = biological target: looped/cyclic peptide … (rabies virus strain ERA); remark: listed apart in the source
[49] = biological target: looped/cyclic peptide … (rabies virus strain ERA); remark: listed apart in the source
[50] = biological target: looped/cyclic peptide … (rabies virus strain ERA); remark: listed apart in the source
[51] = biological target: looped/cyclic peptide … (rabies virus strain ERA); remark: listed apart in the source
[52] = biological target: looped/cyclic peptide … (rabies virus strain ERA); remark: listed apart in the source
[53] = biological target: looped/cyclic peptide … (rabies virus strain ERA); remark: listed apart in the source
[54] = biological target: looped/cyclic peptide … (rabies virus strain ERA); remark: listed apart in the source
[55] = biological target: looped/cyclic peptide … (rabies virus strain ERA); remark: listed apart in the source
[56] = biological target: looped/cyclic peptide … (rabies virus strain ERA); remark: listed apart in the source
[57] = biological target: looped/cyclic peptide … (rabies virus strain ERA); remark: listed apart in the source
[58] = biological target: looped/cyclic peptide … (rabies virus strain ERA); remark: listed apart in the source
[59] = biological target: looped/cyclic peptide … (rabies virus strain ERA); remark: listed apart in the source
[60] = biological target: looped/cyclic peptide … (rabies virus strain ERA); remark: listed apart in the source
[61] = biological target: looped/cyclic peptide … (rabies virus strain ERA); remark: listed apart in the source
[62] = biological target: looped/cyclic peptide … (rabies virus strain ERA); remark: listed apart in the source
[63] = biological target: looped/cyclic peptide … (rabies virus strain ERA); remark: listed apart in the source
[64] = biological target: looped/cyclic peptide … (rabies virus strain ERA); remark: listed apart in the source
[65] = biological target: looped/cyclic peptide … (rabies virus strain ERA); remark: listed apart in the source
[66] = biological target: looped/cyclic peptide … (rabies virus strain ERA); remark: listed apart in the source
[67] = biological target: looped/cyclic peptide … (rabies virus strain ERA); remark: listed apart in the source
[68] = biological target: looped/cyclic peptide … (rabies virus strain ERA); remark: listed apart in the source
[69] = biological target: looped/cyclic peptide … (rabies virus strain ERA); remark: listed apart in the source
[70] = biological target: looped/cyclic peptide … (rabies virus strain ERA); remark: listed apart in the source
[71] = biological target: looped/cyclic peptide … (rabies virus strain ERA); remark: listed apart in the source
[72] = biological target: looped/cyclic peptide … (rabies virus strain ERA); remark: listed apart in the source
[73] = biological target: looped/cyclic peptide … (rabies virus strain ERA); remark: listed apart in the source
[74] = biological target: looped/cyclic peptide … (rabies virus strain ERA); remark: listed apart in the source
[75] = biological target: looped/cyclic peptide … (rabies virus strain ERA); remark: listed apart in the source
[76] = biological target: looped/cyclic peptide … (rabies virus strain ERA); remark: listed apart in the source
[77] = biological target: looped/cyclic peptide … (rabies virus strain ERA); remark: listed apart in the source
[78] = biological target: looped/cyclic peptide … (rabies virus strain ERA); remark: listed apart in the source
[79] = biological target: looped/cyclic peptide … (rabies virus strain ERA); remark: listed apart in the source
[80] = biological target: looped/cyclic peptide … (rabies virus strain ERA); remark: listed apart in the source
[81] = biological target: looped/cyclic peptide … (rabies virus strain ERA); remark: listed apart in the source
[82] = biological target: looped/cyclic peptide … (rabies virus strain ERA); remark: listed apart in the source
[83] = biological target: looped/cyclic peptide … (rabies virus strain ERA); remark: listed apart in the source
[84] = biological target: looped/cyclic peptide … (rabies virus strain ERA); remark: listed apart in the source
[85] = biological target: looped/cyclic peptide … (rabies virus strain ERA); remark: listed apart in the source
[86] = biological target: looped/cyclic peptide … (rabies virus strain ERA); remark: listed apart in the source
[87] = biological target: looped/cyclic peptide … (rabies virus strain ERA); remark: listed apart in the source
[88] = biological target: looped/cyclic peptide … (rabies virus strain ERA); remark: listed apart in the source
[89] = biological target: looped/cyclic peptide … (rabies virus strain ERA); remark: listed apart in the source
[90] = biological target: looped/cyclic peptide … (rabies virus strain ERA); remark: listed apart in the source
[91] = biological target: looped/cyclic peptide … (rabies virus strain ERA); remark: listed apart in the source

B1: human monoclonal antibody CRJA (antibody, V domains shown)
VH: EVQLLESGGGLVQPGGSLRLSCAASGFTFSNYAMSWVRQAPGKGLEWVSAISASGHSTYLADSVKGRFTISRDNSKNTLYLQMNSLRAEDTAVYYCAKDREVTMIVVLNGGFDYWGQGTRVTVSS
VL: EIVLTQSPATLSLSPGERATLACRASQTASRYLAWYQQKPGQAPRLLIYDTSNRATGIPARFSGSGSGTDFTLSISSLEPEDFAVYYCQQRFNWPWTFGQGTKVEFK
B1 gave an OD [1] of 58 OD, an OD [2] of 115 OD and an OD [3] of 90 OD. It also gave an OD [4] of 110 OD, an OD [5] of 113 OD and an OD [6] of 100 OD. It also gave an OD [7] of 110 OD, an OD [8] of 104 OD and an OD [9] of 87 OD. It also gave an OD [10] of 42 OD, an OD [11] of 71 OD and an OD [12] of 82 OD. For the same binder, the OD [13] was 98 OD, the OD [14] was 105 OD and the OD [15] was 104 OD. It also gave an OD [16] of 113 OD, an OD [17] of 103 OD and an OD [18] of 120 OD. It also gave an OD [19] of 94 OD, an OD [20] of 103 OD and an OD [21] of 92 OD. The OD [22] was 87 OD, the OD [23] was 98 OD and the OD [24] was 115 OD. For the same binder, the OD [25] was 55 OD, the OD [26] was 79 OD and the OD [27] was 86 OD. It also gave an OD [28] of 96 OD, an OD [29] of 104 OD and an OD [30] of 108 OD. For the same binder, the OD [31] was 96 OD, the OD [32] was 98 OD and the OD [33] was 98 OD. The OD [34] was 92 OD, the OD [35] was 89 OD and the OD [36] was 43 OD. The OD [37] was 68 OD, the OD [38] was 90 OD and the OD [39] was 98 OD. The OD [40] was 104 OD, the OD [41] was 100 OD and the OD [42] was 132 OD. The OD [43] was 110 OD, the OD [44] was 165 OD and the OD [45] was 114 OD. For the same binder, the OD [46] was 127 OD, the OD [47] was 96 OD and the OD [48] was 105 OD. It also gave an OD [49] of 93 OD, an OD [50] of 52 OD and an OD [51] of 71 OD. For the same binder, the OD [52] was 71 OD, the OD [53] was 105 OD and the OD [54] was 96 OD. It also gave an OD [55] of 117 OD, an OD [56] of 160 OD and an OD [57] of 104 OD. It also gave an OD [58] of 105 OD, an OD [59] of 105 OD and an OD [60] of 78 OD. For the same binder, the OD [61] was 46 OD, the OD [62] was 120 OD and the OD [63] was 68 OD. It also gave an OD [64] of 83 OD, an OD [65] of 100 OD and an OD [66] of 92 OD. It also gave an OD [67] of 100 OD, an OD [68] of 104 OD and an OD [69] of 112 OD. The OD [70] was 87 OD, the OD [71] was 112 OD and the OD [72] was 78 OD. It also gave an OD [73] of 110 OD, an OD [74] of 92 OD and an OD [75] of 54 OD. The OD [76] was 78 OD, the OD [77] was 88 OD and the OD [78] was 44 OD. For the same binder, the OD [79] was 90 OD, the OD [80] was 165 OD and the OD [81] was 108 OD. It also gave an OD [82] of 94 OD, an OD [83] of 94 OD and an OD [84] of 73 OD. The OD [85] was 71 OD, the OD [86] was 114 OD and the OD [87] was 45 OD. The OD [88] was 75 OD, the OD [89] was 84 OD and the OD [90] was 104 OD. For the same binder, the OD [91] was 108 OD.
